Assay [1] concerns the target biotinylated FZD6 cysteine-rich domain (CRD) (human). The experiment in a line: BLI; Octet Red 96e; biotinylated FZD3 or FZD6 CRD immobilised, Nb8 or Wnt5a in solution; 10 mM HEPES pH 7.5, 150 mM NaCl, 0.02% Tween 20, 0.005% GDN; 1:1 binding model. (In BLI a coated tip is dipped into the sample, and binding shifts an interference pattern.)
The target of assay [2] is biotinylated FZD3 cysteine-rich domain (CRD) (human) (UniProt Q9NPG1). The assay is described as above.
Assay [3] addresses biotinylated multidomain FZD3 (C-terminally truncated, in detergent) (human) (UniProt Q9NPG1). The assay can be described thus: BLI; Octet Red 96e; biotinylated multidomain FZD3 or FZD6 in detergent immobilised, nanobody or DEP in solution; 10 mM HEPES pH 7.5, 150 mM NaCl, 0.02% Tween 20, 0.005% GDN; 1:1 binding model.

Among the data in publication PMC11341715 are Kd values, retold here.

Sequence of biotinylated FZD6 cysteine-rich domain (CRD) (human) (O60353 22-139): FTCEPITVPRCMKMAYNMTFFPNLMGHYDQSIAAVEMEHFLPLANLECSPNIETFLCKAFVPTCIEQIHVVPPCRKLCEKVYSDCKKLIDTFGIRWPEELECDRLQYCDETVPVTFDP

B1: Nb8 (VHH)
VHH: QVQLVESGGGLVQAGGSLRLSCAASGSISSINAMGWYRQAPGKQRELVAAITSGGSTNYADSVKGRFTISRDNAKNTVYLQMNSLKPGDTAVYYCNLLYYIDYVEYDYWGQGTQVTVSS
Turning to B1, in assay [1], the Kd is 1200 nM.

B2: human Wnt5a (ligand)
chain: IIGAQPLCSQLAGLSQGQKKLCHLYQDHMQYIGEGAKTGIKECQYQFRHRRWNCSTVDNTSVFGRVMQIGSRETAFTYAVSAAGVVNAMSRACREGELSTCGCSRAARPKDLPRDWLWGGCGDNIDYGYRFAKEFVDARERERIHAKGSYESARILMNLHNNEAGRRTVYNLADVACKCHGVSGSCSLKTCWLQLADFRKVGDALKEKYDSAAAMRLNSRGKLVQVNSRFNSPTTQDLVYIDPSPDYCVRNESTGSLGTQGRLCNKTSEGMDGCELMCCGRGYDQFKTVQTERCHCKFHWCCYVKCKKCTEIVDQFVCK
Molecule B2 showed a dissociation constant (Kd) in assay [2] of 83 nM.

B3: DVL2 DEP domain (domain or fragment)
chain: PESGLEVRDRMWLKITIPNAFLGSDVVDWLYHHVEGFPERREARKYASGLLKAGLIRHTVNKITFSEQCYYVFGD
B3 displayed a Kd in assay [3] of 460 nM.

The term Kd denotes the equilibrium constant for the complex coming apart. Low readings indicate a tighter complex, high ones a looser complex.
